According to patent publication US20250333523A1 (Alector, published 2025):
Positions count from the first letter of the chain named. Values joined by “and” are separate entries in the source; they are usually repeats but may differ in a detail not shown here. Equal entries are not always repeated. Where two headings read alike, the source gives them in different places.

How the values were obtained:
[1] = target: T1, Avi/His-HuIL18BPa (recombinant human IL-18BP isoform A with Avi and poly-His tags) (human, biotinylated with BirA on the Avi tag in some assays); test: ELISA, coated IL-18BP
T1 construct: also called human IL-18BP-Avi-His
T1 chain: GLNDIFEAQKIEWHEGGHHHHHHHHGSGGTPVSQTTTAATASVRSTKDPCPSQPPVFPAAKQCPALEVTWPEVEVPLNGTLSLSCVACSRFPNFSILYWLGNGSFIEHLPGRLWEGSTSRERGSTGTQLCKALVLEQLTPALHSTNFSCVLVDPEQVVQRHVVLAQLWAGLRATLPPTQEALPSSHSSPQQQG

[2] = target: T2, Avi/HisMsIL18BPd (recombinant mouse IL-18BP with Avi and poly-His tags) (mouse, biotinylated with BirA on the Avi tag in some assays); test: ELISA, coated IL-18BP
T2 construct: also called murine IL-18BP; IL-18BP-Avi-His (mouse)
T2 chain: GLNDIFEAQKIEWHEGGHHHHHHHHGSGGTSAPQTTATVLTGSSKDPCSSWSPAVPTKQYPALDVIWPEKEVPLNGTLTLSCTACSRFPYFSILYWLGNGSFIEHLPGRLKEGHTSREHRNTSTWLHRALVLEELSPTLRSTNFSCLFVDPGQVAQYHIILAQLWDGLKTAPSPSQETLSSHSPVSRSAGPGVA

[3] = target: T3, His/Avi-CynoIL18BP (recombinant cynomolgus IL-18BP with His and Avi tags) (cynomolgus monkey); test: ELISA, coated IL-18BP
T3 construct: also called cynomolgus IL-18BP-Avi-His
T3 chain: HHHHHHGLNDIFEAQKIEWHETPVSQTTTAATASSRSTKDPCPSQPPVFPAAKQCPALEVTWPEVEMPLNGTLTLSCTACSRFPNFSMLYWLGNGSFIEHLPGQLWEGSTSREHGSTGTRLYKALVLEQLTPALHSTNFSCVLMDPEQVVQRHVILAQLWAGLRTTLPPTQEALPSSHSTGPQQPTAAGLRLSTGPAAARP

[4] = target: T1, Avi/His-HuIL18BPa (recombinant human …); test: cell-based or functional assay
[5] = target: T2, Avi/HisMsIL18BPd (recombinant mouse …); test: cell-based or functional assay
[6] = target: T3, His/Avi-CynoIL18BP (recombinant …); test: cell-based or functional assay
[7] = target: T1, Avi/His-HuIL18BPa (recombinant human …); test: SPR Carterra LSA, IgG immobilized
[8] = target: T4, mouse IL-18BPd-human IgG Fc (R&D Systems, Cat. #122-BP-100) (mouse; human, UniProt Q9Z0M9 29-193); test: blocking ELISA, competitor mouse IL-18
T4 construct: Bought; also called mouse IL-18BPd-Fc Chimera
T4 sequence (looked up): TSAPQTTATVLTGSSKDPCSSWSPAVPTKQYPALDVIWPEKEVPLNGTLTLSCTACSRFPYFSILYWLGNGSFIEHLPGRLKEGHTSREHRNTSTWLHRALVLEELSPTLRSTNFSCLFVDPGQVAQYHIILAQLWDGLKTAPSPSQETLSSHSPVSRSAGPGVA

[9] = target: T3, His/Avi-CynoIL18BP (recombinant …); test: SPR Carterra LSA, IgG immobilized; WB = weak binding with KD > 1 µM
[10] = target: T1, Avi/His-HuIL18BPa (recombinant human …); test: SPR Biacore T200, IgG captured on Protein A/G
[11] = target: T3, His/Avi-CynoIL18BP (recombinant …); test: SPR Biacore T200, IgG captured on Protein A/G
[12] = target: T1, Avi/His-HuIL18BPa (recombinant human …); test: cell-based or functional assay
[13] = target: T2, Avi/HisMsIL18BPd (recombinant mouse …); test: cell-based or functional assay
[14] = target: T3, His/Avi-CynoIL18BP (recombinant …); test: SPR Carterra LSA, IgG immobilized
[15] = target: T1, Avi/His-HuIL18BPa (recombinant human …); test: blocking ELISA, competitor human IL-18
[16] = target: T3, His/Avi-CynoIL18BP (recombinant …); test: blocking ELISA, competitor rhesus IL-18
[17] = target: T1, Avi/His-HuIL18BPa (recombinant human …); test: SPR Biacore T200, IgG captured on Protein A/G
[18] = target: T3, His/Avi-CynoIL18BP (recombinant …); test: SPR Biacore T200, IgG captured on Protein A/G

B1: anti-IL18BP antibody BP-15 (antibody, human IgG1, V domains shown)
VH: QVQLVQSGAEVKKPGASVKVSCKASGYTFTTYDINWVRQAPGQGLEWMGIINPSGGSTSYAQKFQGRVTMTRDTSTSTVYMELSSLRSEDTAVYYCATGIGELDFDYWGQGTLVTVSS
VL: DIQMTQSPSSLSASVGDRVTITCRASQSISSYLNWYQQKPGKAPKLLIYKASTLHNGVPSRFSGSGSGTDFTLTISNLQPEDFATYYCQQAISFPLTFGGGTKVEIK
- ELISA binding ratio (fold-change over background) [1]: 32.7 fold over background
- ELISA binding ratio (fold-change over background) [2]: 30.1 fold over background
- ELISA binding ratio (fold-change over background) [3]: 34.5 fold over background
- EC50 of IFNγ release, human PBMC [4]: 100 nM
- Fold change of IFNγ at 10 µg/ml vs baseline, human PBMC [4]: 36 fold
- EC50 of IFNγ release, mouse splenocytes [5]: 5.85 nM
- Fold change of IFNγ at 10 µg/ml vs baseline, mouse splenocytes [5]: 7.94 fold
- % of Max Gamma, human NK cells [6]: 10%
- EC50 of IFNγ release, human NK cells [6]: 0.000106 nM
- Kd [7]: 18.8 nM
- blocking ELISA signal normalized to isotype control (=1) [8]: 0.211 ratio to isotype control
- Kd [9]: > 1000 nM

B2: anti-IL18BP antibody BP-16 (antibody, human IgG1, V domains shown)
VH: B1 VH with N52G, P53S, S54Y, S57A, G99A, I100E, G101E, D104R
VL: B1 VL
- ELISA binding ratio (fold-change over background) [1]: 23.6 fold over background
- ELISA binding ratio (fold-change over background) [2]: 22.1 fold over background
- ELISA binding ratio (fold-change over background) [3]: 25.1 fold over background
- EC50 of IFNγ release, human PBMC [4]: 1.66 nM
- Fold change of IFNγ at 10 µg/ml vs baseline, human PBMC [4]: 238 fold
- EC50 of IFNγ release, mouse splenocytes [5]: 3.08 nM
- Fold change of IFNγ at 10 µg/ml vs baseline, mouse splenocytes [5]: 11.9 fold
- % of Max Gamma, human NK cells [6]: 51.6%
- EC50 of IFNγ release, human NK cells [6]: 8.4 nM
- Kd [10]: < 3 pM
- Kd [11]: 11.8 nM

B3: anti-IL18BP antibody BP-04 (antibody, V domains shown)
VH: HVHLHQSGAELVRPGVSVKISCRGSGYTFTDYDVHWVKQSHAKSLEWIGVISTYYGDVGYNQEFKGKATMTLDKSSSTSYLELARLTSEDSAIYYCARSGTYYYGTRESHALDYWGQGTSVTVSS
VL: DIQMTQSPASLSVSVGETVTITCRTSDNVYSNLAWYQQKQGKSPQLLVYGAINLADGVPSRFSGSGSDTQYSLKINNLQSEDFGSYYCQHFWGNPYTFGGGTKLEIK
notes: also called BP-04 (hybridoma); BP-04 (parental)
- ELISA binding ratio (fold-change over background) [1]: 39.7 fold over background
- ELISA binding ratio (fold-change over background) [2]: 39.1 fold over background
- ELISA binding ratio (fold-change over background) [3]: 45.2 fold over background
- EC50 of IFNγ release, human PBMC [4]: 0.67 nM
- Fold change of IFNγ at 10 µg/ml vs baseline, human PBMC [4]: 19 fold
- EC50 of IFNγ release, mouse splenocytes [5]: 4.29 nM
- Fold change of IFNγ at 10 µg/ml vs baseline, mouse splenocytes [5]: 2.74 fold
- % of Max Gamma, human NK cells [6]: 25.9%
- EC50 of IFNγ release, human NK cells [6]: 2.41 nM
- EC50 of IFNγ release, human PBMCs [12]: 15.7 nM
- EC50 of IFNγ release, mouse splenocytes [13]: 14.9 nM
- Kd [7]: 0.8 nM
- Kd [14]: 3 nM
- blocking ELISA signal normalized to isotype control (=1) [15]: 0.165 ratio to isotype control
- blocking ELISA signal normalized to isotype control (=1) [8]: 0.122 ratio to isotype control
- blocking ELISA signal normalized to isotype control (=1) [16]: 0.943 ratio to isotype control
- Kd [17]: 1 nM and 1.1 nM
- koff [17]: 0.00059 s⁻¹ and 0.00062 s⁻¹
- kon [17]: 580000 M⁻¹ s⁻¹
- Kd [18]: 7.3 nM and 8.5 nM
- koff [18]: 0.0032 s⁻¹ and 0.0033 s⁻¹
- kon [18]: 440000 M⁻¹ s⁻¹ and 390000 M⁻¹ s⁻¹

B4: anti-IL18BP antibody BP-02 (antibody, human IgG1, V domains shown)
VH: EVQLQQSGPELVKPGASVKIPCKASGYTFTDYNMDWVKQSHGKSLEWIGNINTNNGGTVYNQKFKGKATLTVDKSSSTAYMELRSLTSEDTAVYYCARSDTTVVASRYYAMDYWGQGTSVTVSL
VL: DIVLTQSPASLAMSLGKRATISCRASESVSIIATNLIHWYQQKPGQPPKLLIYHASNLETGVPARFSGSGSRTDFTLTIDPVEKDDVAIYYCLQSRKIPPTFGGGTKLEIK
- ELISA binding ratio (fold-change over background) [1]: 35.1 fold over background
- ELISA binding ratio (fold-change over background) [2]: 39.2 fold over background
- ELISA binding ratio (fold-change over background) [3]: 29.7 fold over background
- EC50 of IFNγ release, human PBMC [4]: 0.75 nM
- Fold change of IFNγ at 10 µg/ml vs baseline, human PBMC [4]: 16.7 fold
- EC50 of IFNγ release, mouse splenocytes [5]: 4.3 nM
- Fold change of IFNγ at 10 µg/ml vs baseline, mouse splenocytes [5]: 9.34 fold
- % of Max Gamma, human NK cells [6]: 10.4%
- EC50 of IFNγ release, human NK cells [6]: 1.99 nM
- Kd [7]: 1.6 nM
- blocking ELISA signal normalized to isotype control (=1) [15]: 0.167 ratio to isotype control
- blocking ELISA signal normalized to isotype control (=1) [8]: 0.132 ratio to isotype control
- blocking ELISA signal normalized to isotype control (=1) [16]: 0.973 ratio to isotype control
- Kd [9]: > 1000 nM

B5: anti-IL18BP antibody BP-05 (antibody, human IgG1, V domains shown)
VH: B4 VH with G66D, M111L, L124S
VL: B4 VL with A33G, N35D, K84E
- ELISA binding ratio (fold-change over background) [1]: 38.3 fold over background
- ELISA binding ratio (fold-change over background) [2]: 32.1 fold over background
- ELISA binding ratio (fold-change over background) [3]: 9.7 fold over background
- EC50 of IFNγ release, human PBMC [4]: 1.33 nM
- Fold change of IFNγ at 10 µg/ml vs baseline, human PBMC [4]: 16.4 fold
- EC50 of IFNγ release, mouse splenocytes [5]: 2.94 nM
- Fold change of IFNγ at 10 µg/ml vs baseline, mouse splenocytes [5]: 3.15 fold
- Kd [7]: 1.67 nM
- blocking ELISA signal normalized to isotype control (=1) [15]: 0.191 ratio to isotype control
- blocking ELISA signal normalized to isotype control (=1) [8]: 0.138 ratio to isotype control
- blocking ELISA signal normalized to isotype control (=1) [16]: 0.989 ratio to isotype control
- Kd [9]: > 1000 nM

B6: anti-IL18BP antibody BP-13 (antibody, human IgG1, V domains shown)
VH: QVQLQQSGAELVRPGASVTLSCKASGYTFTDYEMHWVKQTPVHGLEWIGPIDPETGDTAYNQKFKGQATLTADKSSSTAYMELSSLTSEDSAVYYCTRGSRGVFDYWGQGTALTVSS
VL: DIVMTQSHKFMSTSVGDRVSITCKASQDVGTAVAWYQQKPGQSPKLLIYWASARHTGVPDRFTGSGSGTDFTLTISNVQSEDLADYFCQHYFNFPRTFGGGTKLEIT
- ELISA binding ratio (fold-change over background) [1]: 44.7 fold over background
- ELISA binding ratio (fold-change over background) [2]: 16.9 fold over background
- ELISA binding ratio (fold-change over background) [3]: 49 fold over background
- EC50 of IFNγ release, human PBMC [4]: 3.89 nM
- Fold change of IFNγ at 10 µg/ml vs baseline, human PBMC [4]: 11.8 fold
- EC50 of IFNγ release, mouse splenocytes [5]: 640 nM
- Fold change of IFNγ at 10 µg/ml vs baseline, mouse splenocytes [5]: 1.74 fold
- % of Max Gamma, human NK cells [6]: 54.1%
- EC50 of IFNγ release, human NK cells [6]: 39.7 nM
- Kd [7]: 7.2 nM
- Kd [14]: 0.3 nM
- blocking ELISA signal normalized to isotype control (=1) [15]: 0.128 ratio to isotype control
- blocking ELISA signal normalized to isotype control (=1) [8]: 0.53 ratio to isotype control
- blocking ELISA signal normalized to isotype control (=1) [16]: 0.331 ratio to isotype control
